Laboratory results: US10260068B2, “Prophylactic agent and therapeutic agent for fibrodysplasia ossificans progressiva” (Sumitomo Dainippon Pharma Co., Ltd., priority 2014, dated 2019)

B1: TGF-β3: Recombinant Human TGF-beta 3 (R&D Systems) (protein, UniProt P10600 301-412, looked up)
Transforming growth factor …: ALDTNYCFRNLEENCCVRPLYIDFRQDLGWKWVHEPKGYYANFCSGPCPYLRSADTTHSTVLGLYNTLNPEASASPCCVPQDLEPLTILYYVGRTPKVEQLSNMVVKSCKCS
B2: follistatin: Recombinant Human Follistatin 315 (R&D Systems) (protein)
chain: GNCWLRQAKNGRCQVLYKTELSKEECCSTGRLSTSWTEEDVNDNTLFKWMIFNGGAPNCIPCKETCENVDCGPGKKCRMNKKNKPRCVCAPDCSNITWKGPVCGLDGKTYRNECALLKARCKEQPELEVQYQGRCKKTCRDVFCPGSSTCVVDQTNNAYCVTCNRICPEPASSEQYLCGNDGVTYSSACHLRKATCLLGRSIGLAYEGKCIKAKSCEDIQCTGGKKCLWDFKVGRGRCSLCDELCPDSKSDEPVCASDNATYASECAMKEAACSSGVLLEVKHSGSCNSISEDTEEEEEDEDQDYSFPISSILEW
B3: follistatin-like 3: Recombinant Human Follistatin-related Gene Protein/FLRG (R&D Systems) (protein, listed as Homo sapiens)
chain: MRPGAPGPLWPLPWGALAWAVGFVSSMGSGNPAPGGVCWLQQGQEATCSLVLQTDVTRAECCASGNIDTAWSNLTHPGNKINLLGFLGLVHCLPCKDSCDGVECGPGKACRMLGGRPRCECAPDCSGLPARLQVCGSDGATYRDECELRAARCRGHPDLSVMYRGRCRKSCEHVVCPRPQSCVVDQTGSAHCVVCRAAPCPVPSSPGQELCGNNNVTYISSCHMRQATCFLGRSIGVRHAGSCAGTPEEPPGGESAEEEENFV
B4: ACVR2B-Fc chimeric protein: Fusion of positions 19 to 134 of SEQ ID NO: 14 with human antibody Fc region via linker Ile-Glu-Gly-Arg-Met-Asp (protein)
chain: SGRGEAETRECIYYNANWELERTNQSGLERCEGEQDKRLHCYASWRNSSGTIELVKKGCWLDDFNCYDRQECVATEENPQVYFCCCEGNFCNERFTHLPEAGGPEVTYEPPPTAPTIEGRMD
modifications: left off: a dimerising Fc or GST

How the values were obtained:
[1] = system: FOP patient derived cells; experiment: Differentiation to chondrocytes (Alcian blue, sulfated glycosaminoglycan assay) of FOP patient derived cells; type: cell-based, human
Procedure: (§1) Mesenchymal stem cell-like cells from a patient iPS cell line and a gene-corrected iPS cell clone were each prepared by the same method as Example 1. The mesenchymal stem cell-like cells were cultured for 6 days under the medium conditions used in the method of Umeda et al. (Sci. Rep., 2012, 2, 455), for differentiation to chondrocytes. During differentiation, 100 ng/mL of human activin A, 100 ng/mL of human BMP-7 or 1 ng/mL of human TGF-β3 (product of R&D Systems, Inc., trade name: Recombinant Human TGF-beta 3) was added and the effect of each factor on differentiation to chondrocytes was examined. The extent of differentiation to chondrocytes was measured with Alcian blue dye and a sulfated glycosaminoglycan assay kit (product of Biocolor, Ltd., trade name: Blyscan Glycosaminoglycan Assay Kit). In FIG. 4, the bar graph indicates the mean values for each treated group, and the error bars represent S.D.

[2] = system: gene-corrected clone derived cells; experiment: Differentiation to chondrocytes (sulfated glycosaminoglycan assay) of gene-corrected clone derived cells; type: cell-based, human; details: 100 ng/mL BMP-7 or 1 ng/mL TGF-β3, 6 days, vs untreated group
Procedure: as §1

[3] = system: FOP patient derived cells; experiment: Evaluation of binding inhibitors: chondrocyte differentiation of FOP patient derived cells in copresence of human activin A; type: cell-based; details: copresence of 30 ng/mL human activin A, 6 days; vs activin-treated group
Procedure: Patient iPS cell line-derived mesenchymal stem cell-like cells were prepared by the same method as Example 1. The mesenchymal stem cell-like cells were cultured for 6 days by the same method as Example 3, for differentiation to chondrocytes. The effect of each factor on differentiation to chondrocytes was examined, with neutralizing antibody for human activin A (product of R&D Systems, Inc., trade name: Human/Mouse/Rat Activin A βA subunit Antibody), follistatin (product of R&D Systems, Inc., trade name: Recombinant Human Follistatin 315 as 30-344), follistatin-like 3 (product of R&D Systems, Inc., trade name: Recombinant Human Follistatin-related Gene Protein/FLRG), ACVR2A-Fc chimeric protein (product of R&D Systems, Inc., trade name: Recombinant Human Activin RIIA Fc Chimera (CHO)), or ACVR2B-Fc chimeric protein (product of R&D Systems, Inc., trade name: Recombinant Human Activin RIIB Fc Chimera), in the copresence of 30 ng/mL of human activin A. The ACVR2A-Fc chimeric protein is a fusion protein in which a polypeptide fragment having the amino acid sequence of positions 20 to 134 of the amino acid sequence listed as SEQ ID NO: 12, and the Fc region of the human-derived antibody, are bonded via a linker sequence (Ile-Glu-Gly-Arg-Met-Asp). The ACVR2B-Fc chimeric protein is a fusion protein in which a polypeptide fragment having the amino acid sequence of positions 19 to 134 of the amino acid sequence listed as SEQ ID NO: 14, and the Fc region of the human-derived antibody, are bonded via a linker sequence (Ile-Glu-Gly-Arg-Met-Asp). The extent of differentiation to chondrocytes was evaluated by Alcian blue staining and sulfated glycosaminoglycan assay, similar to Example 3. In FIG. 6(B), the bar graph indicates the mean values for each treated group, and the error bars represent S.D.

Molecule | difference in cartilage induction between FOP patient derived cells and gene-corrected clone derived cells ([1]; 1 ng/mL TGF-β3, 6 days) | cartilage induction effect compared to the effect exhibited by activin A on FOP patient derived cells ([1]; 100 ng/mL BMP-7 or 1 ng/mL TGF-β3, 6 days) | cartilage induction (sulfated glycosaminoglycan assay) ([1]; FOP patient derived cells, 100 ng/mL activin A, 100 ng/mL BMP-7 or 1 ng/mL TGF-β3, 6 days, vs untreated group) | cartilage induction (sulfated glycosaminoglycan assay) [2] | differentiation of FOP patient derived cells to chondrocytes (Alcian blue staining, sulfated glycosaminoglycan assay) [3]
B1 | no significant difference | weaker | significantly enhanced | significantly enhanced | 
B2 |  |  |  |  | inhibited
B3 |  |  |  |  | inhibited
B4 |  |  |  |  | inhibited
